Entries after “also recorded” stand apart in the source; their conditions may differ. Bridge positions count the residues as written; N and C are the ends. Square brackets hold non-standard residues; d marks the D form. 2Nal = N[C@@H](Cc1ccc2ccccc2c1)C(=O)O; R8 = C=CCCCCCC[C@@](C)(N)C(=O)O; S5 = C=CCCC[C@](C)(N)C(=O)O; Pra = C#CC[C@H](N)C(=O)O
Columns and labels:
APC/C (APC11) = biological target: T1, APC/C (APC11) (Homo sapiens, UniProt Q9NYG5); assay: Pull-down binding assay in HeLa K cell extract, APC/C; conditions: Pra peptide clicked to azide agarose or magnetic beads, Western blot
T1 construct: endogenous in cells; host or cells: HeLa K cell extract
Procedure: (§1) For the protein transfer, the 0.45 μm Immobilon-FL PVDF membrane (Merck Millipore) was used. The membrane was activated in ethanol and then transferred to the Blotting buffer (50 mM SDS-MOPS, 50 mM Tris base, 0.1% SDS, 1 mM EDTA, 20% EtOH). The proteins were transferred using a wet transfer for 1.5 h at 400 mA. Subsequently, the membrane was incubated with the blocking solution, 10% milk in PBS-T (0.02% Tween-20 in PBS), for 1 h at room temperature. To detect proteins of the interest, the membrane was incubated with primary antibodies overnight at 4° C. Followed by washing the membrane 3 times 10 min with PBS-T and incubation with IRDye fluorescently labelled secondary antibodies for 1 h. Prior detection, the membrane was twice washed with PBS-T for 10 min and once with PBS for 10 min. The detection was done using the quantitative near-infrared scanning system Odyssey (LI-COR Biosciences).
HeLa K cell pellet was re-suspended in the extraction buffer (30 mM HEPES pH 7.5, 175 mM NaCl, 2.5 mM MgCl2, 0.25% NP40, 10% glycerol, 1 mM DTT) supplemented with 10 μM MG132 (VWR), 1 mM PMSF (Sigma-Aldrich), complete protease inhibitor cocktail (Roche) and PhosSTOP phosphatase inhibitors (Roche) and incubated for 20 min on ice, followed by centrifugation of cell debris for 15 min at 4° C. 16 100 g. In mean time, inhibitor molecules containing Propargyl (Pra) chemical group were covalently attached to the azide agarose or azide magnetic resin (Jena Bioscience) by Cu(I)-catalysed azide-alkyne cycloaddition reaction. Specifically, the inhibitor molecules were mixed with azide agarose resin in ratio 0.125 μmol inhibitor/25 μl agarose resin and azide magnetic resin in ratio 0.018 μmol inhibitor/20 μl magnetic resin. The reaction was catalysed by 1 mM CuSO4, 0.1 mM TBTA (Sigma-Aldrich) and 1 mM Sodium ascorbate and was performed on the rotating wheel for 30 min at room temperature in the volume of 1 ml. Subsequently, the resin was washed 5 times with the extraction buffer. The inhibitor-agarose resin was added to 1 mg of HeLa K cell extract and the inhibitor-magnetic resin was added to 0.5 mg of HeLa K cell extract followed by incubation at 4° C. for 2 h. Followed by washing the resin 5 times with the extraction buffer. Pull-down proteins were eluted by boiling for 15 min with 1×LDS sample buffer supplemented with 100 mM DTT (agarose resin) or by incubation with 1×LDS sample buffer for 10 min at room temperature followed by taking supernatant that was supplemented with 100 mM DTT and boiling it for 10 min. Samples were subjected to SDS PAGE and Western blot analysis.
HeLa K cell pellet was re-suspended in the extraction buffer (30 mM HEPES pH 7.5, 175 mM NaCl, 2.5 mM MgCl2, 0.25% NP40, 10% glycerol, 1 mM DTT supplied with complete protease inhibitor cocktail (Roche), PhosSTOP phosphatase inhibitors (Roche), 1 mM PMSF, 10 μM MG132) and incubated for 20 min on ice, followed by centrifugation to clear the lysate for 15 min at 4° C. 16,100 g. In the meantime, inhibitor molecules containing the propargyl-Gly-OH (Pra) chemical group were covalently attached to the azide agarose resin (Jena Bioscience) by Cu(I)-catalysed azide-alkyne cycloaddition reaction. Specifically, the inhibitor molecules were mixed with azide agarose resin in ratio 0.125 μmol inhibitor/20 μl agarose resin. The reaction was catalysed by 0.1 mM CuSO4, 0.5 mM THPTA (Sigma-Aldrich) and 5 mM Sodium ascorbate and was performed on the rotating wheel for 30 min at room temperature in the volume of 1 ml. […]

RBX1 = biological target: T2, RBX1 (Homo sapiens, UniProt P62877); assay: Pull-down binding assay in HeLa K cell extract, RBX1; conditions: azide beads, Western blot
T2 construct: endogenous in cells; host or cells: HeLa K cell extract
T2 sequence (P62877 whole entry): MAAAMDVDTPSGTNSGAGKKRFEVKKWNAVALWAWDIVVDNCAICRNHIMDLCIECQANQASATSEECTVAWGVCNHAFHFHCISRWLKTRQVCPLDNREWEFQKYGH
Procedure: as §1
(§2) HeLa K cell pellet was re-suspended in the extraction buffer (30 mM HEPES pH 7.5, 175 mM NaCl, 2.5 mM MgCl2, 0.25% NP40, 10% glycerol, 1 mM DTT) supplemented with 10 μM MG132 (VWR), 1 mM PMSF (Sigma-Aldrich), complete protease inhibitor cocktail (Roche) and PhosSTOP phosphatase inhibitors (Roche) and incubated for 20 min on ice, followed by centrifugation of cell debris for 15 min at 4° C. 16 100 g. […]

Cullin 1 = biological target: T3, Cullin 1 (Homo sapiens, UniProt Q13616); assay: Pull-down binding assay in HeLa K cell extract, Cullin 1; conditions: azide beads, Western blot
T3 construct: endogenous in cells; host or cells: HeLa K cell extract
T3 sequence (Q13616 whole entry): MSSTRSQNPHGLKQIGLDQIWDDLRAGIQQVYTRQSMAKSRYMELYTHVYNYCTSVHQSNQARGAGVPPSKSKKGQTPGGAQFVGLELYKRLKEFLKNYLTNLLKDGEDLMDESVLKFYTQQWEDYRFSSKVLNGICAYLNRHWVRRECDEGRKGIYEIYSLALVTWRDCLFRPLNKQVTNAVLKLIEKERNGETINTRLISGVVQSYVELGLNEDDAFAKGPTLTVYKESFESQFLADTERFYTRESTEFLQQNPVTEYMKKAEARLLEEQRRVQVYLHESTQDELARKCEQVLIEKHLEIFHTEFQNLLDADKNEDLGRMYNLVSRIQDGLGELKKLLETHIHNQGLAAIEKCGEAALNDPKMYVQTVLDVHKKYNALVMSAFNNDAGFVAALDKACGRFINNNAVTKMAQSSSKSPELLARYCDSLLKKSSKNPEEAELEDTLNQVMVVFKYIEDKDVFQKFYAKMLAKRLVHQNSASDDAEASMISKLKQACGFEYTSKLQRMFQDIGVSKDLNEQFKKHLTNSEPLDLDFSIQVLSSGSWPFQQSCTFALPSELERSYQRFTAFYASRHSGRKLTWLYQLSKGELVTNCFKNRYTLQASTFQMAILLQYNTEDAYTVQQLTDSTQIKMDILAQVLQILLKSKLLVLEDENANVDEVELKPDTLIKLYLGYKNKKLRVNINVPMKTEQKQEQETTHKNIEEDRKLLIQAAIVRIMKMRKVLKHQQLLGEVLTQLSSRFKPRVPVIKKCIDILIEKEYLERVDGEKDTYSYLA
Procedure: as §1, §2

APC/C = biological target: T4, APC/C (Homo sapiens, UniProt Q9NYG5); assay: In vitro APC/C ubiquitination assay driven by the E2 enzyme UBE2C, fluorophore-labelled securin substrate; type: biochemical; conditions: 100 μM, UBE2C, reaction time 45 min
T4 construct: made in house; host or cells: SF9 insect cells (baculovirus)
Procedure: Proteins were separated by SDS-PAGE electrophoresis using precast Bolt 4-12% Bis-Tris Plus protein gels (Thermo Fisher Scientific) and Criterion XT Bis-Tris Midi Protein Gels (Bio-Rad). In different experiments, various conditions were used: in vitro APC/C ubiquitination assays—165 V, 40 min, SDS-MES running buffer (50 mM MES, 50 mM Tris base, 0.1% SDS, 1 mM EDTA, pH 7.3; Thermo Fisher Scientific); in vitro APC/C ubiquitination assays determining KM—165V, 1 h, SDS-MOPS running buffer (50 mM MOPS, 50 mM Tris base, 0.1% SDS, 1 mM EDTA, pH 7.7; Thermo Fisher Scientific); pull-down binding assay—165 V, 35 min, SDS-MES running buffer.
APC/C-dependent ubiquitination reactions were performed at 30° C. in 30 mM HEPES pH 7.4, 175 mM NaCl, 8 mM MgCl2, 0.05% Tween-20, 1 mM DTT and 5% glycerol and contained 20 nM recombinant APC/C (note, for testing the first generation of inhibitors, APC/C and Cdc20 immunoprecipitated from mitotic HeLa K cells was used), 340 nM Cdc20, 46 nM GST-UBA1, 340 nM UBE2C (alternatively 400 nM UBE2D1, 280 nM UBE2S), 21 μM His6-ubiquitin or if it is indicated 21 μM methylated-ubiquitin (BostonBiochem), 2.6 mM ATP, 10 mM phosphocreatine and 11 μM creatine kinase. As substrates, 35 nM fluorophore-labeled ubiquitin-cyclin B and 50 nM fluorophore-labeled securin were standardly used (fluorophore IRDye 800CW (LI-COR) was used for labelling). In case of KM and kcat determination, 50, 100, 250, 500, 750, 1000, 1250, 2500 and 5000 nM fluorophore-labelled securin was used. The reaction was done in the volume of 15 μl, it was quenched after the indicated time with LDS sample buffer (Thermo Fisher Scientific) supplemented with 100 mM DTT and subjected to SDS-PAGE. Detection of fluorescently labelled substrates was done by quantitative near-infrared scanning system Odyssey.

hTERT RPE-1 cells = assay: Live cell imaging of hTERT RPE-1 cells; type: cell-based; conditions: hTERT RPE-1, 100 μM, imaged 12-24 h
Procedure: Automated time-lapse microscopy was performed using ImageXpress Micro XLS wide-field screening microscope (Molecular Devices) equipped with a 10×, 0.5 NA., 20×, 0.7 NA, and 40×, 0.95 NA Plan Apo air objectives (Nikon), a laser-based autofocus and a full environmental control (5% CO2, 37° C.). Cells were grown in 96-well plastic bottom plates (clear, Greiner Bio-One) and for live cell imaging media was changed to DMEM without phenol red and riboflavin (Thermo Fisher Scientific), supplemented with 10% (v/v) FBS, 1% (v/v) Glutamax, 1% (v/v) penicillin-streptomycin, and 0.5 μg/ml amphotericin B.
hTERT RPE-1 cells were seeded into 96-well plates (5000 cells) one day prior the treatment with compounds of the invention. Cells were treated with 100 μM of compound G2-6 and the negative control molecule G2-N2 and cell division was monitored by live cell imaging using ImageXpress Micro XLS wide-field screening microscope, images were acquired every 3 min for time courses of 12-24 h. The length of mitosis was determined manually.

Row | binding to the APC/C (pull-down) (APC/C (APC11)) | binding to RBX1 (pull-down) (RBX1) | binding to Cullin 1 (pull-down) (Cullin 1) | Substance | inhibition of APC/C activity in vitro compared with TAME (APC/C; 3 independent assays) | cell fate (cell death) (hTERT RPE-1 cells) | effect on mitosis (length of mitosis) (hTERT RPE-1 cells) | inhibition of APC/C activity in vitro (ubiquitinated securin) (APC/C)
1 | binds to the APC/C | does not bind | does not bind | Ac-cyclo(4,11)-EWPraZIKEIQRXRRA-NH2 (Ac-EW[Pra][R8]IKEIQR[S5]RRA-NH2; staple 4-11; SMILES C#CC[C@H](NC(=O)[C@H](Cc1c[nH]c2ccccc12)NC(=O)[C@H](CCC(=O)O)NC(C)=O)C(=O)N[C@]1(C)CCCCCCC=CCCC[C@@](C)(C(=O)N[C@@H](CCCNC(=N)N)C(=O)N[C@@H](CCCNC(=N)N)C(=O)N[C@@H](C)C(N)=O)NC(=O)[C@H](CCCNC(=N)N)NC(=O)[C@H](CCC(N)=O)NC(=O)[C@H]([C@@H](C)CC)NC(=O)[C@H](CCC(=O)O)NC(=O)[C@H](CCCCN)NC(=O)[C@H]([C@@H](C)CC)NC1=O) [G3-6Pra] | – | – | – | –
2 | binds to the APC/C (APC2 and APC11) | – | almost does not bind | Ac-cyclo(5,9)-RWPPraXKWDXQVRRW-NH2 (Ac-RWP[Pra][S5]KWD[S5]QVRRW-NH2; staple 5-9; SMILES C#CC[C@H](NC(=O)[C@@H]1CCCN1C(=O)[C@H](Cc1c[nH]c2ccccc12)NC(=O)[C@H](CCCNC(=N)N)NC(C)=O)C(=O)N[C@@]1(C)CCCC=CCCC[C@@](C)(C(=O)N[C@@H](CCC(N)=O)C(=O)N[C@H](C(=O)N[C@@H](CCCNC(=N)N)C(=O)N[C@@H](CCCNC(=N)N)C(=O)N[C@@H](Cc2c[nH]c3ccccc23)C(N)=O)C(C)C)NC(=O)[C@H](CC(=O)O)NC(=O)[C@H](Cc2c[nH]c3ccccc23)NC(=O)[C@H](CCCCN)NC1=O) [G3-1Pra] | – | – | – | –
3 | binds specifically to the APC/C | – | – | Ac-cyclo(5,9)-RWPQXKWDXQVRRW-NH2 (Ac-RWPQ[S5]KWD[S5]QVRRW-NH2; staple 5-9; SMILES CC(=O)N[C@@H](CCCNC(=N)N)C(=O)N[C@@H](Cc1c[nH]c2ccccc12)C(=O)N1CCC[C@H]1C(=O)N[C@@H](CCC(N)=O)C(=O)N[C@@]1(C)CCCC=CCCC[C@@](C)(C(=O)N[C@@H](CCC(N)=O)C(=O)N[C@H](C(=O)N[C@@H](CCCNC(=N)N)C(=O)N[C@@H](CCCNC(=N)N)C(=O)N[C@@H](Cc2c[nH]c3ccccc23)C(N)=O)C(C)C)NC(=O)[C@H](CC(=O)O)NC(=O)[C@H](Cc2c[nH]c3ccccc23)NC(=O)[C@H](CCCCN)NC1=O) [G3-1] | inhibit APC/C in vitro more efficiently than TAME | – | – | –
4 | – | – | – | cyclo(1,14)-[L 2-NaI L W K W E W E K R K p P] (cyclo(L[2Nal]LWKWEWEKRK[dP]P); SMILES CC(C)C[C@@H]1NC(=O)[C@H](Cc2ccc3ccccc3c2)NC(=O)[C@H](CC(C)C)NC(=O)[C@@H]2CCCN2C(=O)[C@H]2CCCN2C(=O)[C@H](CCCCN)NC(=O)[C@H](CCCNC(=N)N)NC(=O)[C@H](CCCCN)NC(=O)[C@H](CCC(=O)O)NC(=O)[C@H](Cc2c[nH]c3ccccc23)NC(=O)[C@H](CCC(=O)O)NC(=O)[C@H](Cc2c[nH]c3ccccc23)NC(=O)[C@H](CCCCN)NC(=O)[C@H](Cc2c[nH]c3ccccc23)NC1=O) [G2-6] | – | causes cell death; also recorded: mitotic or subsequent cell death | prolongs mitosis; also recorded: causes prolonged mitosis | the most potent molecule from item (f); also recorded: inhibit APC/C in vitro the most effectively compared to other molecules of item (f)

Source: patent publication US20230391828A1, “REGULATORS OF CELL DIVISION” (TECHNISCHE UNIVERSITÄT DRESDEN, priority 2020, published 2023)
